{"source": "patent US20220112308A1", "about": "(Genentech, published 2022)", "binders": {"B1": {"name": "anti-KRas antibody 1A5 (antibody, human IgG1, V domains shown)", "VH": "EVQLVESGGGLVQPGGSLRLSCAASGFTFSSYSMNWVRQAPGKGLEWVSYISSSSSTIYYADSVKGRFTISRDNAKNSLYLQMNSLRAEDTAVYYCARGFYVRNWFDPWGQGTLVTVSS", "VL": "AIQMTQSPSSLSASVGDRVTITCRASQGIRNDLGWYQQKPGKAPKLLIYAASSLQSGVPSRFSGSGSGTDFTLTISSLQPEDFATYYCLQDHDYPLTFGQGTKVEIK", "notes": "also called Class I anti-KRas antibody; 1A5-488 (labelled form in FACS)"}, "B2": {"name": "anti-KRas antibody 1E5 (antibody, V domains shown)", "VH": "EVQLVESGGGLVKPGGSLRLSCAASGFTFSSYSMNWVRQAPGKGLEWVSSISSSSSYIYYADSVKGRFTISRDNAKNSLYLQMNSLRAEDTAVYYCARTNNYGYRYFDYWGQGTLVTVSS", "VL": "LTQDPAVSVALGQTVRITCQGDSLRSYYASWYQQKPGQAPVLVIYGKNNRPSGIPDRFSGSSSGNTASLTITGAQAEDEADYYCNSRDSSGNHWVFGGGTKLTVL", "notes": "also called Class II anti-KRas antibody"}, "B3": {"name": "anti-KRas antibody 2A3 (antibody, human IgG1, V domains shown)", "VH": "B2 VH with T99A, N100T, N101S, Y102S, R105Y", "VL": "ELTQDPAVSVALGQTVRITCQGDSLRSYYASWYQQKPGQAPVLVIYGKNNRPSGIPDRFSGSSSGNTASLTITGAQAEDEADYYCNSRDSTDNHLWVFGGGTKLTVL", "notes": "as for B2"}, "B4": {"name": "anti-KRas antibody 2H11 (antibody, human IgG1, V domains shown)", "VH": "EVQLQESGPGLVKPPGTLSLTCAVSGGSISSSNWWSWVRQPPGKGLEWIGEIYHSGSTNYNPSLKSRVTISVDKSKNQFSLKLSSVTAADTAVYYCARGSSSWYDLGPFDYWGQGTLVTVSS", "VL": "not shown", "notes": "also called Class II anti-KRas antibody; CLAMP"}, "B5": {"name": "anti-KRas antibody 3A12 (antibody, V domains shown)", "VH": "EVQLVESGGGLVQPGGSLRLSCAASGFTFSSYSMNWVRQAPGKGLEWVSYISSSSSTIYYADSVKGRFTISRDNAKNSLYLQMNSLRAEDTAVYYCARGKGIVGWGFFGMDVWGQGTLVTVSS", "VL": "SVLTQPPSVSAAPGQKVTISCSGSSSNIGNNYVSWYQQLPGTAPKLLIYDNNKRPSGIPDRFSGSKSGTSATLGITGLQTGDEADYYCGTWDNSLSVWVFGGGTKLTVL", "notes": "as for B2"}, "B6": {"name": "anti-KRas antibody 2C1 (antibody, V domains shown)", "VH": "EVQLVESGGGLVKPGGSLRLSCAASGFTFSSYSMNWVRQAPGKGLEWVSSISSSSSYIYYADSVKGRFTISRDNAKNSLYLQMNSLRAEDTAVYYCARAFYSYMDVWGQGTLVTVSS", "VL": "not shown", "notes": "also called Class I anti-KRas antibody"}, "B7": {"name": "anti-KRas antibody 1B7 (antibody, human IgG1, V domains shown)", "VH": "EVQLVQSGAEVKKPGSSVKVSCKASGGTFSSYAISWVRQAPGQGLEWMGGIIPIFGTANYAQKFQGRVTITADESTSTAYMELSSLRSEDTAVYYCARYYDFWSGYPGGLFDVWGQGTLVTVSS", "VL": "B5 VL with N93S, S96T, V97G", "notes": "as for B6"}, "B8": {"name": "anti-KRas antibody 1A6 (antibody, human IgG1, V domains shown)", "VH": "B7 VH", "VL": "B5 VL with N93S, S96T, V97G, W98Y", "notes": "as for B6"}, "B9": {"name": "anti-KRas antibody 1F4 (antibody, human IgG1, V domains shown)", "VH": "EVQLVESGGGLVQPGGSLRLSCAASGFTFSSYSMNWVRQAPGKGLEWVSYISSSSSTIYYADSVKGRFTISRDNAKNSLYLQMNSLRAEDTAVYYCARSFGPYAFDVWGQGTLVTVSS", "VL": "not shown"}, "B10": {"name": "anti-KRas antibody 1D6 (antibody, human IgG1, V domains shown)", "VH": "EVQLVESGGGLVQPGGSLRLSCAASGFTFSSYAMSWVRQAPGKGLEWVSAISSSGSSTYYADSVKGRFTISRDNSKNTLYLQMNSLRAEDTAVYYCARDQGGYGYPGESWFDYWGQGTLVTVSS", "VL": "B1 VL with A1D, R30S, N31S, D32Y, G34A, L89Q, D91Y, H92Y, D93S, L96F", "notes": "as for B6"}}, "key": {"[1]": {"biological_target": "T1, KRas^WT-GDP (recombinant) (human, UniProt P01116-2 2-169, GDP bound)", "assay": "SPR, IgG captured by anti-human IgG1 Fc, KRas in solution, 25 C, 1:1 Langmuir fit", "method": "(§1) SPR experiments were carried out on the Mass-1 (Bruker) at 25° C. using HBS-P+(GE Healthcare) running buffer. 1 μg/mL of the anti-KRas antibodies were captured using an anti-HuIgG1 Fc capture kit (GE Healthcare). […] KRas^G12C-GDP was titrated using a dilution series from 5000-0 nM. KRas^G12C-GDP+ARS1620 was titrated using a dilution series from 1000-0 nM. KRas^G12C-GDP+ARS853 was titrated using a dilution series from 200-0 nM. KRasWT-GDP was titrated using a dilution series from 2000-0 nM. Sensorgrams were fit to a 1:1 Langmuir model to identify kinetic parameters."}, "[2]": {"biological_target": "KRas^WT-GTP (recombinant) (human, UniProt P01116-2 2-169, GTP bound as printed in Table 1B)", "assay": "SPR, KRas bound to GTP (Table 1B)"}, "[3]": {"biological_target": "T1, KRas^WT-GDP (recombinant)", "assay": "SPR, IgG captured, KRas as analyte", "method": "as §1"}}, "note": "Changes are numbered by the printed parent chain.", "data": [{"binder": "B1", "values": [{"measurement": "Kd", "setting": "[1]", "result": 159, "unit": "nM"}]}, {"binder": "B2", "values": [{"measurement": "Kd", "setting": "[1]", "result": 411, "unit": "nM"}]}, {"binder": "B3", "values": [{"measurement": "Kd", "setting": "[2]", "result": 7, "unit": "nM"}, {"measurement": "Kd", "setting": "[1]", "result": 71, "unit": "nM"}]}, {"binder": "B4", "values": [{"measurement": "Kd", "setting": "[1]", "result": 42, "unit": "nM"}]}, {"binder": "B5", "values": [{"measurement": "Kd", "setting": "[1]", "result": 24, "unit": "nM"}]}, {"binder": "B6", "values": [{"measurement": "binding result", "setting": "[3]", "result": "no binding (tested: titrated 2000-0 nM)"}]}, {"binder": "B7", "values": [{"measurement": "binding result", "setting": "[3]", "result": "no binding (tested: titrated 2000-0 nM)"}]}, {"binder": "B8", "values": [{"measurement": "binding result", "setting": "[3]", "result": "no binding (tested: titrated 2000-0 nM)"}]}, {"binder": "B9", "values": [{"measurement": "binding result", "setting": "[3]", "result": "no binding (tested: titrated 2000-0 nM)"}]}, {"binder": "B10", "values": [{"measurement": "binding result", "setting": "[3]", "result": "no binding (tested: titrated 2000-0 nM)"}]}]}
